Source: doi:10.1101/2025.11.15.688598

Target: Cy5-labeled proliferating cell nuclear antigen (PCNA) (human) (UniProt P12004)
Sequence (P12004 whole entry): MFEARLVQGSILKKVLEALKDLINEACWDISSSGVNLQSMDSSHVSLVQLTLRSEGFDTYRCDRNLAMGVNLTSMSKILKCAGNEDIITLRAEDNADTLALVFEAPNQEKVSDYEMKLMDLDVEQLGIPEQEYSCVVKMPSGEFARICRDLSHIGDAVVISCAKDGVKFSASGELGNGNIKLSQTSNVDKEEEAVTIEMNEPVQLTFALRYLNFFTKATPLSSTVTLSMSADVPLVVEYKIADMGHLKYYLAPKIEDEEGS

Chain of PAF15^50–77 peptide (Q15004 50-77): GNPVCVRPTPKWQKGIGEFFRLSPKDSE
Chain of ΔN-PAF15 (truncated PAF15 variant lacking residues 2-31) (Q15004 32-111, stated change not applied): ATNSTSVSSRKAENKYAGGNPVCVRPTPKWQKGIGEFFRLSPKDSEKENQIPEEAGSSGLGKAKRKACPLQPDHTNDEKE
Chain of Doubly monoubiquitinated PAF15 (Di-UbPAF15) (Q15004 whole entry, looked up): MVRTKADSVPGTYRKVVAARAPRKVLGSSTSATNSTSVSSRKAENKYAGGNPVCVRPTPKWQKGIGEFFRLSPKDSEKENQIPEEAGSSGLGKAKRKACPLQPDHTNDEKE

Work on PAF15^50–77 peptide yielded a diffusion constant of Cy5-PCNA on DNA with 20 μM PAF15 50-77 of 0.22 μm2/s.

Work on “ΔN-PAF15 (truncated PAF15 variant lacking residues 2-31) (from UniProt Q15004 32-111) (domain or fragment)” yielded a diffusion constant of Cy5-PCNA on DNA with 1 μM ΔN-PAF15 of 0.15 μm2/s.

For “Doubly monoubiquitinated PAF15 (Di-UbPAF15) (from UniProt Q15004 2-111) (complex)”, the diffusion constant of Cy5-PCNA on DNA with 1 μM Di-UbPAF15 was 0.2 μm2/s.
